Experimental findings from PMC4151996 are described below.

The test has as its target AcHNL, hydroxynitrile lyase from Acidobacterium capsulatum ATCC 51196 (Acidobacterium capsulatum ATCC 51196). Description: SEC.

“AcHNL, hydroxynitrile lyase from Acidobacterium capsulatum ATCC 51196 (enzyme)” displayed a stoichiometry N of 4.
